# Results published in paper doi:10.1101/2020.03.14.988758 (bioRxiv, 2020).
# Target: ectodomain construct of MuSK (ectoMuSK) (aa1-472) (Homo sapiens (assumed), UniProt O15146, biotin on the Avitag (site-specific, BirA))
# Assay: BLI
# Chain of ectodomain construct of MuSK (ectoMuSK) (aa1-472) (O15146 24-472): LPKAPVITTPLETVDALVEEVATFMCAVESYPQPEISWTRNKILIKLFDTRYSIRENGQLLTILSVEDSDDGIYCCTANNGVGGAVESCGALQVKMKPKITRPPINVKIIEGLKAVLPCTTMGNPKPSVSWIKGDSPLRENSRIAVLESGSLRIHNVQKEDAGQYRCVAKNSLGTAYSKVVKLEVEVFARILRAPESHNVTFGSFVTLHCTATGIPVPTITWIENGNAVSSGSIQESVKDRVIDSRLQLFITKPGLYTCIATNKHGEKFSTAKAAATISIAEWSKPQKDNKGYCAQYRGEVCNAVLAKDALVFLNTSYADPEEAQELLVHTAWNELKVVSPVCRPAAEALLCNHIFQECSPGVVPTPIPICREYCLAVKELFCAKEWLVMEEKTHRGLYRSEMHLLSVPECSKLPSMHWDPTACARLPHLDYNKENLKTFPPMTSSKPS
row,Kd [nM],Binder
1,0.41,"Fab MuSK1A (mature) (Fab, V domains shown) VH: QVQLVQSGAEVKKPGASVKVSCKTSGYTFNNYDINWVRQAAGQGLEWMGWMNPYSGNTGYAQKFQGRVTMTRNISITTVYMELSSLRSEDTAVYYCAREVRGDTGYGGGSDYWGQGTLVTVSS VL: SYELTQPPSVSLSPGQTATITCSGDKLDDNYVCWYQQKPGQSPVLVIYQDTMRPSGIPERFSGSNSGNIATLTISGTQAVDEADYYCQAWDGSTVVFGGGTRLTVL"
2,0.44,"Fab MuSK1B (mature) (Fab, V domains shown) VH: EVQLVEWGAGLLKPSETLSLTCAVYGGSFSGDYWWTWIRQPPGKGLEWIGEIDHTGNTNYNPSLKSRLTLSVDMSKNHFSLKLTSVTAADTALYFCARQEGLGYYDSWGQGTLVTVSS VL: SYELTQSPSVSVSPGQTANITCSGDKLGDRYASWYQQKPAQSPVLVIYQDDRRPSGIPERFSGSNSGNTATLTISGTQGMDEADYYCQAWDGTTVFGGGTKLTVL"
